Entries after “also recorded” stand apart in the source; their conditions may differ. Structures can show the parent of a compound that is named as a salt.
What was measured:
[1] = test system: Main Protease of coronaviruses; settings: enzymatical assays; cited from earlier work
SARS-CoV-2 [2] = settings: pretreatment, Vero-E6 cells; cited from earlier work
PEDV = settings: pretreatment, Vero-E6 cells; cited from earlier work
[3] = test system: lentiviral SARS-CoV-2 pseudoparticles; format: cell-based
Covid-19 = test system: Covid-19; design: species or system patients; settings: in vivo
[4] = test system: protease-mediated entry of SARS-CoV-2; settings: in vitro; cited from earlier work
TMPRSS2 of Caco2 cells [5] = biological target: TMPRSS2 of Caco2 cells (UniProt O15393); experiment: cell-based or functional assay
Sequence of TMPRSS2 of Caco2 cells (UniProt O15393) (O15393 whole entry): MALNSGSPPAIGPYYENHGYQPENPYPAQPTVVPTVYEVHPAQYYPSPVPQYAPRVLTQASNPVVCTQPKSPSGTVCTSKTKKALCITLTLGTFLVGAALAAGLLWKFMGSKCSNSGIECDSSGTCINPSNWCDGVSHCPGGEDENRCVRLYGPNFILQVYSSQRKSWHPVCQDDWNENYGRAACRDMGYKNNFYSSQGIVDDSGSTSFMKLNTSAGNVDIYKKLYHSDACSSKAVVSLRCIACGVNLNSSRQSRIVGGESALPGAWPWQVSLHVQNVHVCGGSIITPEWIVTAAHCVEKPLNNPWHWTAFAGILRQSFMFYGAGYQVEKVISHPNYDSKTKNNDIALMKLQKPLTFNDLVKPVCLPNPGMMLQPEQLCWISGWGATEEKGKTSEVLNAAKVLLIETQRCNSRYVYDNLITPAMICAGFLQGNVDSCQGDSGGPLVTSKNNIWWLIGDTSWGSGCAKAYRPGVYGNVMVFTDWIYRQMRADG

TMPRSS2 of Caco2 cells [6] = biological target: TMPRSS2 of Caco2 cells (UniProt O15393 1-492); experiment: cell-based or functional assay
Sequence of TMPRSS2 of Caco2 cells (UniProt O15393 1-492) (O15393 whole entry): as above

Caco-2 cells = settings: in the tested concentrations
[7] = biological target: T1, recombinant human TMPRSS2 (Homo sapiens, UniProt O15393); experiment: TMPRSS2 activity assay (fluorogenic reporter peptide substrate); format: biochemical; settings: dose-dependent; read-out: IC50 of TMPRSS2 proteolytic activity
T1 construct: purchased LSBio LS-G57269
T1 sequence (O15393 whole entry): as above
Method: The respective protease (TMPRSS2 or neutrophil elastase) is mixed with a serial dilution of rhAAT, camostat mesylate or Prolastin resulting in the formation of a complex between the test compound and the protease. Subsequently, a fluorogenic reporter peptide substrate is added. Upon cleavage of the reporter peptide substrate by the protease, a fluorescent dye is set free.
For assessing the activity of recombinant human TMPRSS2, 25 μl of serially diluted Prolastin, camostat mesylate or rhAAT is incubated with 25 μl of 2 μg/ml recombinant TMPRSS2 enzyme (LSBio #LS-G57269) in assay buffer (50 mM Tris-HCL, […] NaCl pH 8.0) for 15 min at 37° C. Next, 50 μl of 20 μM BOC-Gln-Ala-Arg-AMC protease substrate (Bachem #4017019) is added and incubated for 2 h at 37° C. Fluorescence intensity is measured after 2 h at an excitation wavelength of 380 nm and emission wavelength of 460 nm in a Synergy™ H1 microplate reader (BioTek) with Gen5 3.04 software. The assay is performed in a 96 well plate with flat bottom.

SARS-CoV-2 [8] = format: cell-based

## COc1cc(O)c(CC=C(C)C)c(O)c1C(=O)/C=C/c1ccc(O)cc1 [Xanthohumol]
[1]
  inhibition of protease activities: inhibited protease activities
SARS-CoV-2 [2]
  SARS-CoV-2 replication: restricted
PEDV
  PEDV replication: restricted

## CN(C)C(=O)COC(=O)Cc1ccc(OC(=O)c2ccc(NC(=N)N)cc2)cc1 [camostat mesylate, reference compound]
[3]
  inhibition of the entry of SARS-CoV-2 pseudoparticles: inhibits the entry of SARS-CoV-2

## AAT
Covid-19
  Covid-19 PCR test: negative
  symptoms: significantly improved; also recorded: no symptoms
[4]
  restriction of protease-mediated entry of SARS-CoV-2: potently restricts

## Prolastin
Covid-19
  Covid-19 rapid tests: negative
  symptoms: no symptoms
[3]
  inhibition of the entry of SARS-CoV-2 pseudoparticles: inhibits the entry of SARS-CoV-2

## Prolastin: human serum derived AAT (from UniProt P01009 25-418)
TMPRSS2 of Caco2 cells [5]
  IC50 of inhibiting pseudoparticle entry into Caco2 cells (Prolastin): 3.16 mg/mL
  estimated IC90 of pseudoparticle entry into Caco2 cells, derived from FIG. 4: 20 mg/mL

B1: rec α1AT from supernatant of Pichia pastoris X33, anion exchange fractions 52 and 53 (other)
chain: EDPQGDAAQKTDTSHHDQDHPTFNKITPNLAEFAFSLYRQLAHQSNSTNIFFSPVSIATAFAMLSLGTKADTHDEILEGLNFNLTEIPEAQIHEGFQELLRTLNQPDSQLQLTTGNGLFLSEGLKLVDKFLEDVKKLYHSEAFTVNFGDTEEAKKQINDYVEKGTQGKIVDLVKELDRDTVFALVNYIFFKGKWERPFEVKDATEEEDFHVDQVTTVKVPMMKRLGMFNIQHCKKLSSWVLLMKYLGNATAIFFLPDEGKLQHLENELTHDIITKFLENEDRRSASLHLPKLSITGTYDLKSVLGQLGITKVFSNGADLSGVTEEAPLKLSKAVHKAVLTIDEKGTEAAGAMFLEAIPMSIPPEVKFNKPFVFLMIEQNTKSPLFMGKVVNPTQK
TMPRSS2 of Caco2 cells [6]
  IC50 of inhibiting pseudoparticle entry into Caco2 cells (rec α1AT Fraction 52): 3.06 mg/mL
  IC50 of inhibiting pseudoparticle entry into Caco2 cells (rec α1AT Fraction 53): 3.96 mg/mL

B2: rhAAT (protein)
chain: B1 chain
Caco-2 cells
  toxicity for Caco-2 cells: nontoxic
[3]
  inhibition of the entry of SARS-CoV-2 pseudoparticles: inhibits the entry of SARS-CoV-2 similar to Prolastin and camostat mesylate
  pseudoparticle entry: almost no pseudoparticle entry
[7]
  IC50: ~350 nM
SARS-CoV-2 [8]
  SARS-CoV-2 spike expression: less detectable than Prolastin treated HAECs
  inhibition of SARS-CoV-2 replication: more effectively than Prolastin
  viral titer: reduce viral titer

Reference: US20250057927A1, “ALPHA-1 A[…] FROM YEAST FOR USE IN THE TREATMENT OF VIRAL INFECTIONS” (priority 2021, published 2025)
